We go through five molecules from patent publication US20200024322A1 (Eli Lilly, published 2020).

For orientation: Ki means a dissociation constant, usually derived from enzyme kinetics or from competition with a known ligand. Read a low Ki as tighter binding.

One assay deals with T1, human GIP receptor (human, UniProt P48546 22-466).
T1 construct: whole, on cells; Used as crude membranes of stably transfected CHO cells; also called hGIPR
T1 sequence (looked up): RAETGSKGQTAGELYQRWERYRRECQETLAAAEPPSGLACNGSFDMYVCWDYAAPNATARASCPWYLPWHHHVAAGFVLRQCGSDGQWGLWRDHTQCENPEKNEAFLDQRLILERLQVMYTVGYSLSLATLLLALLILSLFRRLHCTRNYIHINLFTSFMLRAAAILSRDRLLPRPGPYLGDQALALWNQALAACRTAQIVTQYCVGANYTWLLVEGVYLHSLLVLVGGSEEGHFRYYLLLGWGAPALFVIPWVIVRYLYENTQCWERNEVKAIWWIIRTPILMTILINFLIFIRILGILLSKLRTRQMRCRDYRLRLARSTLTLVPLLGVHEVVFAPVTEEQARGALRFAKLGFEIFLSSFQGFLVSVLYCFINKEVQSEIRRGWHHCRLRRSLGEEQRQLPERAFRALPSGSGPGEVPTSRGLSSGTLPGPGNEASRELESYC
Briefly: SPA, [125I]-GIP displacement, hGIPR membranes.

The next assay has as its target T2, human glucagon receptor (human, UniProt P47871 26-477).
T2 construct: whole, on cells; Used as crude membranes of stably transfected HEK293 cells; also called hGcgR; hGLcgR
The assay is described as follows: SPA, [125I]-Gcg displacement, hGcgR membranes.

The target in a further assay is T3, human GLP-1 receptor (human, UniProt P43220 24-463).
T3 construct: whole, on cells; Used as crude membranes of stably transfected HEK293 cells; also called hGLP1R; hGLP-1R
The assay is described as follows: SPA, [125I]-GLP-1 displacement, hGLP-1R membranes.

Numbered stars: 1 amine (or outer) side, 2 acyl side, 3 side chain; on linkers, the order of the positions; unused ones are H or OH. Square brackets hold non-standard residues; d marks the D form. Side chains are listed from the residue outwards. Ends that are not written are not given here. * marks the point of attachment. C20 diacid = O=C(O)CCCCCCCCCCCCCCCCCCC(=O)*; γGlu = O=C(O)[C@H](CCC(=O)[*:2])N[*:1]; AEEA = NCCOCCOCC(=O)O; Aib = CC(C)(N)C(=O)O

T2 sequence (P47871 26-477): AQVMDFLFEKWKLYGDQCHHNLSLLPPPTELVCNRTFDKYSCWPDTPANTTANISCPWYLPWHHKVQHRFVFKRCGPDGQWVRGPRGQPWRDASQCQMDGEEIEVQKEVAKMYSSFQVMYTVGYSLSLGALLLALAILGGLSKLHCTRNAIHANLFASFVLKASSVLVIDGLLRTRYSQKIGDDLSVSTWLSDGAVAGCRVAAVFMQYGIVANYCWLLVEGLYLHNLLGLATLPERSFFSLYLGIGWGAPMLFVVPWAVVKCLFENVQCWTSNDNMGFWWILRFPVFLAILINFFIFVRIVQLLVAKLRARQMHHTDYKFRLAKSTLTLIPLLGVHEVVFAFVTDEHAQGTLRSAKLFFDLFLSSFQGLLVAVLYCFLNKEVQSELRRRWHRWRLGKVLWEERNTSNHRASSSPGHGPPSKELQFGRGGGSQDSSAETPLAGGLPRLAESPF

B1: Example 32 (peptide)
peptide: Y[Aib]EGTFTSDYSILLDKIAQ[Aib]K([AEEA-AEEA-γGlu-C20 diacid])FIEYLIEGGPSSGAPPPS-NH2
modifications: N-terminus assumed
SMILES: CC[C@H](C)[C@H](NC(=O)[C@H](CCCCN)NC(=O)[C@H](CC(=O)O)NC(=O)[C@H](CC(C)C)NC(=O)[C@H](CC(C)C)NC(=O)[C@@H](NC(=O)[C@H](CO)NC(=O)[C@H](Cc1ccc(O)cc1)NC(=O)[C@H](CC(=O)O)NC(=O)[C@H](CO)NC(=O)[C@@H](NC(=O)[C@H](Cc1ccccc1)NC(=O)[C@@H](NC(=O)CNC(=O)[C@H](CCC(=O)O)NC(=O)C(C)(C)NC(=O)[C@@H](N)Cc1ccc(O)cc1)[C@@H](C)O)[C@@H](C)O)[C@@H](C)CC)C(=O)N[C@@H](C)C(=O)N[C@@H](CCC(N)=O)C(=O)NC(C)(C)C(=O)N[C@@H](CCCCNC(=O)COCCOCCNC(=O)COCCOCCNC(=O)CC[C@H](NC(=O)CCCCCCCCCCCCCCCCCCC(=O)O)C(=O)O)C(=O)N[C@@H](Cc1ccccc1)C(=O)N[C@H](C(=O)N[C@@H](CCC(=O)O)C(=O)N[C@@H](Cc1ccc(O)cc1)C(=O)N[C@@H](CC(C)C)C(=O)N[C@H](C(=O)N[C@@H](CCC(=O)O)C(=O)NCC(=O)NCC(=O)N1CCC[C@H]1C(=O)N[C@@H](CO)C(=O)N[C@@H](CO)C(=O)NCC(=O)N[C@@H](C)C(=O)N1CCC[C@H]1C(=O)N1CCC[C@H]1C(=O)N1CCC[C@H]1C(=O)N[C@@H](CO)C(N)=O)[C@@H](C)CC)[C@@H](C)CC
B1: the Ki in the assay with human GIP receptor worked out at 0.0205 nM; in the assay with human glucagon receptor it was 44.7 nM; with human GLP-1 receptor, 3.96 nM.

B2: Example 37 (peptide)
peptide: Y[Aib]EGTFTSDYSILLDKIAQ[Aib]AFIEYLIK([AEEA-AEEA-γGlu-C20 diacid])GGPSSGAPPPS-NH2
modifications: N-terminus assumed
SMILES: CC[C@H](C)[C@H](NC(=O)[C@H](CCCCN)NC(=O)[C@H](CC(=O)O)NC(=O)[C@H](CC(C)C)NC(=O)[C@H](CC(C)C)NC(=O)[C@@H](NC(=O)[C@H](CO)NC(=O)[C@H](Cc1ccc(O)cc1)NC(=O)[C@H](CC(=O)O)NC(=O)[C@H](CO)NC(=O)[C@@H](NC(=O)[C@H](Cc1ccccc1)NC(=O)[C@@H](NC(=O)CNC(=O)[C@H](CCC(=O)O)NC(=O)C(C)(C)NC(=O)[C@@H](N)Cc1ccc(O)cc1)[C@@H](C)O)[C@@H](C)O)[C@@H](C)CC)C(=O)N[C@@H](C)C(=O)N[C@@H](CCC(N)=O)C(=O)NC(C)(C)C(=O)N[C@@H](C)C(=O)N[C@@H](Cc1ccccc1)C(=O)N[C@H](C(=O)N[C@@H](CCC(=O)O)C(=O)N[C@@H](Cc1ccc(O)cc1)C(=O)N[C@@H](CC(C)C)C(=O)N[C@H](C(=O)N[C@@H](CCCCNC(=O)COCCOCCNC(=O)COCCOCCNC(=O)CC[C@H](NC(=O)CCCCCCCCCCCCCCCCCCC(=O)O)C(=O)O)C(=O)NCC(=O)NCC(=O)N1CCC[C@H]1C(=O)N[C@@H](CO)C(=O)N[C@@H](CO)C(=O)NCC(=O)N[C@@H](C)C(=O)N1CCC[C@H]1C(=O)N1CCC[C@H]1C(=O)N1CCC[C@H]1C(=O)N[C@@H](CO)C(N)=O)[C@@H](C)CC)[C@@H](C)CC
Turning to B2, the values for the Ki with human GIP receptor, in the assay with human glucagon receptor and in the assay with human GLP-1 receptor were 0.0523 nM, 255 nM and 3.84 nM, respectively.

B3: Example 36 (peptide)
peptide: Y[Aib]EGTFTSDYSILLDKIAQ[Aib]AFIEYLK([AEEA-AEEA-γGlu-C20 diacid])EGGPSSGAPPPS-NH2
modifications: N-terminus assumed
SMILES: CC[C@H](C)[C@H](NC(=O)[C@H](CCCCN)NC(=O)[C@H](CC(=O)O)NC(=O)[C@H](CC(C)C)NC(=O)[C@H](CC(C)C)NC(=O)[C@@H](NC(=O)[C@H](CO)NC(=O)[C@H](Cc1ccc(O)cc1)NC(=O)[C@H](CC(=O)O)NC(=O)[C@H](CO)NC(=O)[C@@H](NC(=O)[C@H](Cc1ccccc1)NC(=O)[C@@H](NC(=O)CNC(=O)[C@H](CCC(=O)O)NC(=O)C(C)(C)NC(=O)[C@@H](N)Cc1ccc(O)cc1)[C@@H](C)O)[C@@H](C)O)[C@@H](C)CC)C(=O)N[C@@H](C)C(=O)N[C@@H](CCC(N)=O)C(=O)NC(C)(C)C(=O)N[C@@H](C)C(=O)N[C@@H](Cc1ccccc1)C(=O)N[C@H](C(=O)N[C@@H](CCC(=O)O)C(=O)N[C@@H](Cc1ccc(O)cc1)C(=O)N[C@@H](CC(C)C)C(=O)N[C@@H](CCCCNC(=O)COCCOCCNC(=O)COCCOCCNC(=O)CC[C@H](NC(=O)CCCCCCCCCCCCCCCCCCC(=O)O)C(=O)O)C(=O)N[C@@H](CCC(=O)O)C(=O)NCC(=O)NCC(=O)N1CCC[C@H]1C(=O)N[C@@H](CO)C(=O)N[C@@H](CO)C(=O)NCC(=O)N[C@@H](C)C(=O)N1CCC[C@H]1C(=O)N1CCC[C@H]1C(=O)N1CCC[C@H]1C(=O)N[C@@H](CO)C(N)=O)[C@@H](C)CC
B3: the Ki in the assay with human GIP receptor was determined as 0.141 nM; in the assay with human glucagon receptor, 413 nM; with human GLP-1 receptor, 16.4 nM.

B4: Example 34 (peptide)
peptide: Y[Aib]EGTFTSDYSILLDKIAQ[Aib]AFIK([AEEA-AEEA-γGlu-C20 diacid])YLIEGGPSSGAPPPS-NH2
modifications: N-terminus assumed
SMILES: CC[C@H](C)[C@H](NC(=O)[C@H](CCCCN)NC(=O)[C@H](CC(=O)O)NC(=O)[C@H](CC(C)C)NC(=O)[C@H](CC(C)C)NC(=O)[C@@H](NC(=O)[C@H](CO)NC(=O)[C@H](Cc1ccc(O)cc1)NC(=O)[C@H](CC(=O)O)NC(=O)[C@H](CO)NC(=O)[C@@H](NC(=O)[C@H](Cc1ccccc1)NC(=O)[C@@H](NC(=O)CNC(=O)[C@H](CCC(=O)O)NC(=O)C(C)(C)NC(=O)[C@@H](N)Cc1ccc(O)cc1)[C@@H](C)O)[C@@H](C)O)[C@@H](C)CC)C(=O)N[C@@H](C)C(=O)N[C@@H](CCC(N)=O)C(=O)NC(C)(C)C(=O)N[C@@H](C)C(=O)N[C@@H](Cc1ccccc1)C(=O)N[C@H](C(=O)N[C@@H](CCCCNC(=O)COCCOCCNC(=O)COCCOCCNC(=O)CC[C@H](NC(=O)CCCCCCCCCCCCCCCCCCC(=O)O)C(=O)O)C(=O)N[C@@H](Cc1ccc(O)cc1)C(=O)N[C@@H](CC(C)C)C(=O)N[C@H](C(=O)N[C@@H](CCC(=O)O)C(=O)NCC(=O)NCC(=O)N1CCC[C@H]1C(=O)N[C@@H](CO)C(=O)N[C@@H](CO)C(=O)NCC(=O)N[C@@H](C)C(=O)N1CCC[C@H]1C(=O)N1CCC[C@H]1C(=O)N1CCC[C@H]1C(=O)N[C@@H](CO)C(N)=O)[C@@H](C)CC)[C@@H](C)CC
With B4, the Ki with human GIP receptor is 0.0467 nM; in the assay with human glucagon receptor, 134 nM; in the assay with human GLP-1 receptor, 3.41 nM.

B5: Example 39 (peptide)
peptide: Y[Aib]EGTFTSDYSILLDKIAQ[Aib]AFIEYLIEGK([AEEA-AEEA-γGlu-C20 diacid])PSSGAPPPS-NH2
modifications: N-terminus assumed
SMILES: CC[C@H](C)[C@H](NC(=O)[C@H](CCCCN)NC(=O)[C@H](CC(=O)O)NC(=O)[C@H](CC(C)C)NC(=O)[C@H](CC(C)C)NC(=O)[C@@H](NC(=O)[C@H](CO)NC(=O)[C@H](Cc1ccc(O)cc1)NC(=O)[C@H](CC(=O)O)NC(=O)[C@H](CO)NC(=O)[C@@H](NC(=O)[C@H](Cc1ccccc1)NC(=O)[C@@H](NC(=O)CNC(=O)[C@H](CCC(=O)O)NC(=O)C(C)(C)NC(=O)[C@@H](N)Cc1ccc(O)cc1)[C@@H](C)O)[C@@H](C)O)[C@@H](C)CC)C(=O)N[C@@H](C)C(=O)N[C@@H](CCC(N)=O)C(=O)NC(C)(C)C(=O)N[C@@H](C)C(=O)N[C@@H](Cc1ccccc1)C(=O)N[C@H](C(=O)N[C@@H](CCC(=O)O)C(=O)N[C@@H](Cc1ccc(O)cc1)C(=O)N[C@@H](CC(C)C)C(=O)N[C@H](C(=O)N[C@@H](CCC(=O)O)C(=O)NCC(=O)N[C@@H](CCCCNC(=O)COCCOCCNC(=O)COCCOCCNC(=O)CC[C@H](NC(=O)CCCCCCCCCCCCCCCCCCC(=O)O)C(=O)O)C(=O)N1CCC[C@H]1C(=O)N[C@@H](CO)C(=O)N[C@@H](CO)C(=O)NCC(=O)N[C@@H](C)C(=O)N1CCC[C@H]1C(=O)N1CCC[C@H]1C(=O)N1CCC[C@H]1C(=O)N[C@@H](CO)C(N)=O)[C@@H](C)CC)[C@@H](C)CC
Consider B5, for which the Ki with human GIP receptor worked out at 0.0499 nM; with human glucagon receptor it was 161 nM; with human GLP-1 receptor, 16.8 nM.
